According to publication PMC10402096 (bioRxiv, 2023):
Values belong to the molecule of their own block, whether it stands above or below them.

How the values were obtained:
[1] = target: recombinant 6His-TTLL12 (Tubulin Tyrosine Ligase-Like 12) (UniProt Q14166); experiment: pull-down
recombinant GST-Rab19 = target: T1, recombinant GST-Rab19 (UniProt A4D1S5 1-217); experiment: pull-down
T1 sequence (looked up): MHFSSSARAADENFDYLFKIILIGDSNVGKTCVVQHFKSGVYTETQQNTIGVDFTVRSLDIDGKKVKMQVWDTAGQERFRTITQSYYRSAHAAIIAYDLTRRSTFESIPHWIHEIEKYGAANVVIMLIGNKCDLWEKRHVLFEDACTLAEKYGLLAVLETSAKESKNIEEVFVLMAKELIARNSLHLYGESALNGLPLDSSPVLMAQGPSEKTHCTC

- fold increase in tubulin co-precipitation with Ni-beads when TTLL12 is present [1]: 3 fold
Molecule: purified porcine brain tubulin (α/β-tubulin heterodimer, kept unpolymerized at 4°C) (from UniProt P02550 1-451; P02554 1-445) (complex)

- fold increase in TTLL12 binding against the GST-only control (recombinant GST-Rab19): ~5 fold
B1: recombinant 6His-TTLL12 (Tubulin Tyrosine Ligase-Like 12) (natural protein, UniProt Q14166 1-644, looked up)
chain: MEAERGPERRPAERSSPGQTPEEGAQALAEFAALHGPALRASGVPERYWGRLLHKLEHEVFDAGEVFGIMQVEEVEEEEDEAAREVRKQQPNPGNELCYKVIVTRESGLQAAHPNSIFLIDHAWTCRVEHARQQLQQVPGLLHRMANLMGIEFHGELPSTEAVALVLEEMWKFNQTYQLAHGTAEEKMPVWYIMDEFGSRIQHADVPSFATAPFFYMPQQVAYTLLWPLRDLDTGEEVTRDFAYGETDPLIRKCMLLPWAPTDMLDLSSCTPEPPAEHYQAILEENKEKLPLDINPVVHPHGHIFKVYTDVQQVASSLTHPRFTLTQSEADADILFNFSHFKDYRKLSQERPGVLLNQFPCENLLTVKDCLASIARRAGGPEGPPWLPRTFNLRTELPQFVSYFQQRERWGEDNHWICKPWNLARSLDTHVTKSLHSIIRHRESTPKVVSKYIESPVLFLREDVGKVKFDIRYIVLLRSVRPLRLFVYDVFWLRFSNRAFALNDLDDYEKHFTVMNYDPDVVLKQVHCEEFIPEFEKQYPEFPWTDVQAEIFRAFTELFQVACAKPPPLGLCDYPSSRAMYAVDLMLKWDNGPDGRRVMQPQILEVNFNPDCERACRYHPTFFNDVFSTLFLDQPGGCHVTCLV
